Reference: patent US20100323375

Experiments:
[1] = biological target: FLAG-APP (UniProt P05067)
[2] = test system: T1, FLAG-Alcbeta
T1 sequence 1: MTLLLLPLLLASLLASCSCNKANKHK
T1 sequence 2: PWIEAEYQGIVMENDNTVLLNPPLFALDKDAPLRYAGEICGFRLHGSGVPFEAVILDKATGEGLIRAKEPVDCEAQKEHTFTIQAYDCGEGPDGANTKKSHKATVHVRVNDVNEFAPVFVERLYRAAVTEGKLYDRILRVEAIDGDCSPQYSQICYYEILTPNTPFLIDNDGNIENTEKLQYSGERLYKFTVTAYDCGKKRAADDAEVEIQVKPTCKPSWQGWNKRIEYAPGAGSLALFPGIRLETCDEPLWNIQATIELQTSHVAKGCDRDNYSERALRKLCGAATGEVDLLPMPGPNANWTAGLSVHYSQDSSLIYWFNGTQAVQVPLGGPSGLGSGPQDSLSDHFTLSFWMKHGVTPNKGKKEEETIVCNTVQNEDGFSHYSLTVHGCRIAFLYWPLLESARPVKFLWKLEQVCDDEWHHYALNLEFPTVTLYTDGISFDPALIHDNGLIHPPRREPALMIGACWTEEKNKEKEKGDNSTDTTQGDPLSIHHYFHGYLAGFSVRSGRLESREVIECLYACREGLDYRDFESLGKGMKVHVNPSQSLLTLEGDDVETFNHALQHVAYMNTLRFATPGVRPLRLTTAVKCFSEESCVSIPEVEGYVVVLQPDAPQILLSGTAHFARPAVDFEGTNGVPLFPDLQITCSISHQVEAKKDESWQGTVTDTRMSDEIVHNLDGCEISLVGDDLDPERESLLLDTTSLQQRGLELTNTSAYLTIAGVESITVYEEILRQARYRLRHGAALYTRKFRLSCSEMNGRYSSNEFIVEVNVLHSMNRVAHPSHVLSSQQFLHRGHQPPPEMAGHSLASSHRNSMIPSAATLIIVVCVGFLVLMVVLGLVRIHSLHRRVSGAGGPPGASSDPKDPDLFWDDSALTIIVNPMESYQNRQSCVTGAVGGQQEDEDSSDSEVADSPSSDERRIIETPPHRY

[3] = test system: T2, FLAG-Alcgamma
T2 sequence 1: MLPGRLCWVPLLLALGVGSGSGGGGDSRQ
T2 sequence 2: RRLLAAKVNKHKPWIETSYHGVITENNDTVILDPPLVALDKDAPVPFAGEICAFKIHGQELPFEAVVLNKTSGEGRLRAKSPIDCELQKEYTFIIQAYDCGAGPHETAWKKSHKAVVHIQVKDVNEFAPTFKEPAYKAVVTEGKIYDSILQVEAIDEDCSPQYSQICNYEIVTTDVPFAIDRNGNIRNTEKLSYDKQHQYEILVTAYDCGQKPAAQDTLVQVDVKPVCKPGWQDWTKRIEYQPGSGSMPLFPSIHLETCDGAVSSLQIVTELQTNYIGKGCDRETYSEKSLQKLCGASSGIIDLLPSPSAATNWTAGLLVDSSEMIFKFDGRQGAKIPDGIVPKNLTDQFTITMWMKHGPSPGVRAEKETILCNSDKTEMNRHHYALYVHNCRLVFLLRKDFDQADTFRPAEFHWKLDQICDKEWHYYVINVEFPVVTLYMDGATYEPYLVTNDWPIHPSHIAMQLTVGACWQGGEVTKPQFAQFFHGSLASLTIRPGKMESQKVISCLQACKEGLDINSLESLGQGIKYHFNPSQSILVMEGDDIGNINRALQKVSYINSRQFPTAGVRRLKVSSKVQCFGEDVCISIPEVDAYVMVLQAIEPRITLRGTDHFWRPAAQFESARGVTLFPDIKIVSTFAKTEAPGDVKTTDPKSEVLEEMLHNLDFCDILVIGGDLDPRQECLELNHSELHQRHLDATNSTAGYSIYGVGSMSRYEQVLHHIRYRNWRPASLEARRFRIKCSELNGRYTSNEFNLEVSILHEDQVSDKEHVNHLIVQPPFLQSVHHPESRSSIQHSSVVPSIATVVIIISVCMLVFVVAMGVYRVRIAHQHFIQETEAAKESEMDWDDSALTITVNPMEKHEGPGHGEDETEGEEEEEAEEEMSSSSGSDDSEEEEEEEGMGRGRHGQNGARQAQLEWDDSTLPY

[4] = test system: T3, FLAG-Alcalpha
T3 sequence 1: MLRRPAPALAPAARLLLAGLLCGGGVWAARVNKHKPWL
T3 sequence 2: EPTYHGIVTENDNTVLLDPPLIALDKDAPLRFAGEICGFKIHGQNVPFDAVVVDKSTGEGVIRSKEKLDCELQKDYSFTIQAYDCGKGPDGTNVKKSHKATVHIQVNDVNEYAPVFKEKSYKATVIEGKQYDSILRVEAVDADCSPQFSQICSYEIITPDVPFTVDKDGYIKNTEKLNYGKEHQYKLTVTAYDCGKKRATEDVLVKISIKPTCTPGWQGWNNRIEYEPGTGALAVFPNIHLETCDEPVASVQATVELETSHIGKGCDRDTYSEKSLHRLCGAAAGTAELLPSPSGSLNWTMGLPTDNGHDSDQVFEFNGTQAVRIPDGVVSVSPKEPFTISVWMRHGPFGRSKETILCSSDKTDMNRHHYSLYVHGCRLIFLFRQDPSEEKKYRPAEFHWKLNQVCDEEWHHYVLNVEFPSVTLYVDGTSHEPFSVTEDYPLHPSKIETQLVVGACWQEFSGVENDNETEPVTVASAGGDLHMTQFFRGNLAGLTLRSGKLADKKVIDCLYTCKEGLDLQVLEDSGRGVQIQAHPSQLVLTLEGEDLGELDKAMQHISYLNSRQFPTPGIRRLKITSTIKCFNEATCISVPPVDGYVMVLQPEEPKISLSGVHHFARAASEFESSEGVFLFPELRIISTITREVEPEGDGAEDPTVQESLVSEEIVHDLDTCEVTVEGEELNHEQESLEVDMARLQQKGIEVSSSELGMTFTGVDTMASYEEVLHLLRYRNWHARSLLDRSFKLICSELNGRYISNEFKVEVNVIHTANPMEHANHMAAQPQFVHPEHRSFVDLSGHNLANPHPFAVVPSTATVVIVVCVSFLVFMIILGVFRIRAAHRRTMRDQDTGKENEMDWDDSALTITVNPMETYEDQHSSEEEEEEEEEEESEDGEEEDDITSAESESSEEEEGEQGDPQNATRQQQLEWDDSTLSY

Sequence of ADAM10-HA (O14672 whole entry): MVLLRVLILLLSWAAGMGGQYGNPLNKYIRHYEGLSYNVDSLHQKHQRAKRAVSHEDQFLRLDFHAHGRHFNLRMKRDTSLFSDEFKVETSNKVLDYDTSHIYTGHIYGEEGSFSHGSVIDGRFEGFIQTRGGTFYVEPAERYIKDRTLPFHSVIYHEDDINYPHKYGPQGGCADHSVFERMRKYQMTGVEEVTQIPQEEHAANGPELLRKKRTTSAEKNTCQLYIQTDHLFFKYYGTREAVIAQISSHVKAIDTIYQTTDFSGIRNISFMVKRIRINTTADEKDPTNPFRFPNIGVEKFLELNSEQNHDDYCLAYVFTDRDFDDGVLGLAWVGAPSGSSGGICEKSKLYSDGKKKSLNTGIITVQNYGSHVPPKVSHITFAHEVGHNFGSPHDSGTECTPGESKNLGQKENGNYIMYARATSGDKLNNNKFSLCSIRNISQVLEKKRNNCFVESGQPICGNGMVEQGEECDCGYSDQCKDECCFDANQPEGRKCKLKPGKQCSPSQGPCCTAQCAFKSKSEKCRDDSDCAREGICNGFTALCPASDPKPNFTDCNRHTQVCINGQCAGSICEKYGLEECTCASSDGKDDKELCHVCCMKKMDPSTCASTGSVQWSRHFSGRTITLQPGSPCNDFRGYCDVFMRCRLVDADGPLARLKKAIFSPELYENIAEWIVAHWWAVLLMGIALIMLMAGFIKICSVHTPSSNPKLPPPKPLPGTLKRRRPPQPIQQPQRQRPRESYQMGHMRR
Sequence of FLAG-APP (P05067 whole entry, looked up): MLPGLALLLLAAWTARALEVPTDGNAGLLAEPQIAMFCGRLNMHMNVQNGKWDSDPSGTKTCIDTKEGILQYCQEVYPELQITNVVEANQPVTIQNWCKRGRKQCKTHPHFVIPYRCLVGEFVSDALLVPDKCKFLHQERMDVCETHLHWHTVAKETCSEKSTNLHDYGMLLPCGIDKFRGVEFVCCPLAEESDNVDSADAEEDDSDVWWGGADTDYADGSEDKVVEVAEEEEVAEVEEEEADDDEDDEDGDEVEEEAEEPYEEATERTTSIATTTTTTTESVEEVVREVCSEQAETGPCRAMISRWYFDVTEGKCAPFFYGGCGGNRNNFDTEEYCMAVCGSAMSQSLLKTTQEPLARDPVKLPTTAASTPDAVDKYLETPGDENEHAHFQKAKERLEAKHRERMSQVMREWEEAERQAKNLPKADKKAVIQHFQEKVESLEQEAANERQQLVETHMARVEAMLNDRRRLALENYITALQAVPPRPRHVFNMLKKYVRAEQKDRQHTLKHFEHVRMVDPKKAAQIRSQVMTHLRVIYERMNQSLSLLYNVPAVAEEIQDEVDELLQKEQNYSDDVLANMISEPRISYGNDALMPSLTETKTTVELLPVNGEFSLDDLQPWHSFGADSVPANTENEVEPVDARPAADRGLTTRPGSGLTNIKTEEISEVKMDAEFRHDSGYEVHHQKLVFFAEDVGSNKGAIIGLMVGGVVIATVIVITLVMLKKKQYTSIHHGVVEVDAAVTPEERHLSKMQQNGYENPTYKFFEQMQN

ADAM10-HA
amount of sAPP secreted by ADAM (-/-) MEFs with exogenous ADAM10 against without [1]: about 1.7 fold over that of sAPP secreted by ADAM (-/-) MEFs | amount of sAlcbeta secreted by ADAM (-/-) MEFs with exogenous ADAM10 [2]: The amounts of sAlcalpha, sAlcbeta, and sAlcgamma secreted by ADAM (-/-) MEFs were restored in response to the expression of exogenous ADAM10 | amount of sAlcgamma secreted by ADAM (-/-) MEFs with exogenous ADAM10 [3]: The amounts of sAlcalpha, sAlcbeta, and sAlcgamma secreted by ADAM (-/-) MEFs were restored in response to the expression of exogenous ADAM10 | amount of sAlcalpha secreted by ADAM (-/-) MEFs with exogenous ADAM10 [4]: The amounts of sAlcalpha, sAlcbeta, and sAlcgamma secreted by ADAM (-/-) MEFs were restored in response to the expression of exogenous ADAM10
